System: Foxi1 (FOXI1)
Assay: competition EMSA
Conditions: unlabeled wt competitor; 5 mM HEPES pH 7.9, 100 mM KCl, 26% glycerol, 1.5 mM MgCl2, 0.2 mM EDTA, 0.5 mM DTT, 0.5 mM PMSF, 500 ng poly dI:dC, room temperature 15 min; 6% native gel …; scale: fold molar excess for effective competition

ATP6V0A4 Fk1-3 wt (-561/-547)
competitor fold molar excess for effective competition: 10
